Measurements reported in patent US20160200782A1.

What was measured:
Assay in all cases: cell-based or functional assay
CDK2/cyclinE(h) (human) = CDK2/cyclinE(h) (human) (UniProt P24941)
Rsk3(h) (human) = Rsk3(h) (human) (UniProt Q15349)
Met(Y1248D)(h) (human) = Met(Y1248D)(h) (human) (UniProt P08581)
PDGFRα(D842V)(h) (human) = PDGFRα(D842V)(h) (human) (UniProt P16234)
Pim-2(h) (human) = Pim-2(h) (human) (UniProt Q9P1W9)
PKCθ(h) (human) = PKCθ(h) (human) (UniProt Q04759)
PASK(h) (human) = PASK(h) (human) (UniProt Q96RG2)
Mer(h) (human) = Mer(h) (human) (UniProt Q12866)
Ab1(Q252H)(h) (human) = Ab1(Q252H)(h) (human) (UniProt P00519)
[1] = target: IGF-1R(h), activated (human) (UniProt P08069)
Flt3(D835Y)(h) (human) = Flt3(D835Y)(h) (human) (UniProt P36888)
CaMKIIβ(h) (human) = CaMKIIβ(h) (human) (UniProt Q13554)
EphA4(h) (human) = EphA4(h) (human) (UniProt P54764)
Hck(h) (human) = Hck(h) (human) (UniProt P08631)
PDK1(h) (human) = PDK1(h) (human) (UniProt O15530)
cKit(D816H)(h) (human) = cKit(D816H)(h) (human) (UniProt P10721)
FGFR3(h) (human) = FGFR3(h) (human) (UniProt P22607)
PKCα(h) (human) = PKCα(h) (human) (UniProt P17252)
Aurora-A(h) (human) = Aurora-A(h) (human) (UniProt O14965)
Ret(h) (human) = Ret(h) (human) (UniProt P07949)
Lck(h) activated (human) = Lck(h) activated (human) (UniProt P06239)
LOK(h) (human) = LOK(h) (human) (UniProt O94804)
EphB4(h) (human) = EphB4(h) (human) (UniProt P54760)
Fms(h) (human) = Fms(h) (human) (UniProt P07333)
CK1δ(h) (human) = CK1δ(h) (human) (UniProt P48730)
GCK(h) (human) = GCK(h) (human) (UniProt Q12851)
PKCη(h) (human) = PKCη(h) (human) (UniProt P24723)
CaMKI(h) (human) = CaMKI(h) (human) (UniProt Q14012)
SAPK4(h) (human) = SAPK4(h) (human) (UniProt O15264)
ZAP-70(h) (human) = ZAP-70(h) (human) (UniProt P43403)
DDR2(h) (human) = DDR2(h) (human) (UniProt Q16832)
Bmx(h) (human) = Bmx(h) (human) (UniProt P51813)
[2] = target: CDK9/cyclin T1(h) (human) (UniProt P50750)
Pim-3(h) (human) = Pim-3(h) (human) (UniProt Q86V86)
IR(h) (human) = IR(h) (human) (UniProt P06213)
Tie2(Y897S)(h) (human) = Tie2(Y897S)(h) (human) (UniProt Q02763)
MST2(h) (human) = MST2(h) (human) (UniProt Q13188)
FGFR4(h) (human) = FGFR4(h) (human) (UniProt P22455)
PKCζ(h) (human) = PKCζ(h) (human) (UniProt Q05513)
Haspin(h) (human) = Haspin(h) (human) (UniProt Q8TF76)
mTOR/FKBP12(h) (human) = mTOR/FKBP12(h) (human) (UniProt P42345)
PAK2(h) (human) = PAK2(h) (human) (UniProt Q13177)
cSRC(h) (human) = cSRC(h) (human) (UniProt P12931)
CaMKIIγ(h) (human) = CaMKIIγ(h) (human) (UniProt Q13555)
CaMKIIδ(h) (human) = CaMKIIδ(h) (human) (UniProt Q13557)
Mnk2(h) (human) = Mnk2(h) (human) (UniProt Q9HBH9)
MST3(h) (human) = MST3(h) (human) (UniProt Q9Y6E0)
Met(D1246N)(h) (human) = Met(D1246N)(h) (human) (UniProt P08581)
MRCKα(h) (human) = MRCKα(h) (human) (UniProt Q5VT25)
MSK1(h) (human) = MSK1(h) (human) (UniProt O75582)
Ab1(T315I)(h) (human) = Ab1(T315I)(h) (human) (UniProt P00519)
MAPKAP-K2(h) (human) = MAPKAP-K2(h) (human) (UniProt P49137)
Met(D1246H)(h) (human) = Met(D1246H)(h) (human) (UniProt P08581)
FAK(h) (human) = FAK(h) (human) (UniProt Q05397)
Ab1(H396P)(h) (human) = Ab1(H396P)(h) (human) (UniProt P00519)
SRPK1(h) (human) = SRPK1(h) (human) (UniProt Q96SB4)
Also: test concentration or dose not given here.

Pim-2(h) (human), sequence (Q9P1W9 whole entry): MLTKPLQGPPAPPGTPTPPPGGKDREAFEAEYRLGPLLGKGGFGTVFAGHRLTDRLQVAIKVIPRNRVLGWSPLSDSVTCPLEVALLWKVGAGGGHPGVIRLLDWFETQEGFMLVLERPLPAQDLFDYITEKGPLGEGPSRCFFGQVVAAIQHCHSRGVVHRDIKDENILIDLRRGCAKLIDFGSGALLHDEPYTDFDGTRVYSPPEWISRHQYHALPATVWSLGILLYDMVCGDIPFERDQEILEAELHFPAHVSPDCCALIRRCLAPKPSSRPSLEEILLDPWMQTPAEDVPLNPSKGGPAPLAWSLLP
ZAP-70(h) (human), sequence (P43403 whole entry): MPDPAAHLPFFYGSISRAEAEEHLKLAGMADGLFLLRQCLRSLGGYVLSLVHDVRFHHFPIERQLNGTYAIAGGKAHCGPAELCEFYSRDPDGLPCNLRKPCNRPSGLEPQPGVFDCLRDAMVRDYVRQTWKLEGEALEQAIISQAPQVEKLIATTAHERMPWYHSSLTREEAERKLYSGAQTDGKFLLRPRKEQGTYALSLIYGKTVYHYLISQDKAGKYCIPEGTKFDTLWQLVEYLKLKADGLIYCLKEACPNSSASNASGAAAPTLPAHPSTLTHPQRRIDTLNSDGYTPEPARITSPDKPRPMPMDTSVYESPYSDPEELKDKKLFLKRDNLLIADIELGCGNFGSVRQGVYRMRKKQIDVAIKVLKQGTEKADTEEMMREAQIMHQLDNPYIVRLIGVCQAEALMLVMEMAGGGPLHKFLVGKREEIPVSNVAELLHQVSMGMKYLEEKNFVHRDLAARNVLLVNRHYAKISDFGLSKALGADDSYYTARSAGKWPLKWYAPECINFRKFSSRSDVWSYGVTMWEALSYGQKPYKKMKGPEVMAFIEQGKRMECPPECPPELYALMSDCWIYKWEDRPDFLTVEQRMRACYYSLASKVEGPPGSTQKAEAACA
mTOR/FKBP12(h) (human), sequence (P42345 1362-2549 limits assumed, chain 1 of 2): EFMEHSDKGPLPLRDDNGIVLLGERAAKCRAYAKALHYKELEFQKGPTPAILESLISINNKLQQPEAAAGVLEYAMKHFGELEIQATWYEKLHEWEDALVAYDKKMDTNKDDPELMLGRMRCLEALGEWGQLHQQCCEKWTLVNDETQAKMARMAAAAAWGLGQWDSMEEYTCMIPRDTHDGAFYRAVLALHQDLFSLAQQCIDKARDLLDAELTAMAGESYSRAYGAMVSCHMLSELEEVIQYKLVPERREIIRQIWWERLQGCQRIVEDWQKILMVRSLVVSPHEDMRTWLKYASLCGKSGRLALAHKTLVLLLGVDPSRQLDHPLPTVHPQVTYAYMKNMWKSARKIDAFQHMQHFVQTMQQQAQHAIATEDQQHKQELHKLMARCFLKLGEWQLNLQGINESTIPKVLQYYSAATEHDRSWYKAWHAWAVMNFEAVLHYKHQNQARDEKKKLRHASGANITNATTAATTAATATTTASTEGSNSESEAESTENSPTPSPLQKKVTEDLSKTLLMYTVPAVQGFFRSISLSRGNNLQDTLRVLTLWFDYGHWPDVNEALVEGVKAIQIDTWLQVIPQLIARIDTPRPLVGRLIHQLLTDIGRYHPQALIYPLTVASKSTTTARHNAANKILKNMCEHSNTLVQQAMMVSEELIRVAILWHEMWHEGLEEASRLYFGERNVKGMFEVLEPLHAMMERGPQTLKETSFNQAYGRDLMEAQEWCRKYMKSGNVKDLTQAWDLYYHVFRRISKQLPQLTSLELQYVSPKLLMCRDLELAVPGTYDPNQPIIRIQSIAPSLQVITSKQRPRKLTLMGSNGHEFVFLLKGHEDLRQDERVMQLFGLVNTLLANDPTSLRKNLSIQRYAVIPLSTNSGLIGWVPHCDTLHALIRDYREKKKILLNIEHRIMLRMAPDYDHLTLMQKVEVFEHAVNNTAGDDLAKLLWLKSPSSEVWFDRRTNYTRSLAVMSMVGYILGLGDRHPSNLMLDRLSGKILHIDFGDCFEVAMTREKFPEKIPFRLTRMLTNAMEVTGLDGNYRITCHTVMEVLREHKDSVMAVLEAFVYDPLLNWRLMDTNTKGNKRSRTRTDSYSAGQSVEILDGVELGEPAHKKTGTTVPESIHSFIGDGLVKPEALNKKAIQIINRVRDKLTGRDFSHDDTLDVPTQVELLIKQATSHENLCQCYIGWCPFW
mTOR/FKBP12(h) (human), sequence (P62942 whole entry, chain 2 of 2, further chain): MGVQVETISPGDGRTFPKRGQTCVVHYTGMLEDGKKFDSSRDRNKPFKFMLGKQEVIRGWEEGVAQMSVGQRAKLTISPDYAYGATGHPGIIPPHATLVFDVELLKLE
Aurora-A(h) (human), sequence (O14965 whole entry): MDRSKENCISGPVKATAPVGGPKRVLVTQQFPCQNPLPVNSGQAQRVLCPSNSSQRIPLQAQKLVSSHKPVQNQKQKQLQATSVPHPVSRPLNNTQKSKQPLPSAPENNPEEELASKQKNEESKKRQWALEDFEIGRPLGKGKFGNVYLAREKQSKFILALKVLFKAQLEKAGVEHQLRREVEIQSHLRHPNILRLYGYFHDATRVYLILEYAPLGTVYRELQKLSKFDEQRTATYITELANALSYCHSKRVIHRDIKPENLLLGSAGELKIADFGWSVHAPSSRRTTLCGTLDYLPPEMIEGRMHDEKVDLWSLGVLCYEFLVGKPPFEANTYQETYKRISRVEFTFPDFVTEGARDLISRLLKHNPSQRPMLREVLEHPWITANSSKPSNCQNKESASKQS
PKCθ(h) (human), sequence (Q04759 whole entry): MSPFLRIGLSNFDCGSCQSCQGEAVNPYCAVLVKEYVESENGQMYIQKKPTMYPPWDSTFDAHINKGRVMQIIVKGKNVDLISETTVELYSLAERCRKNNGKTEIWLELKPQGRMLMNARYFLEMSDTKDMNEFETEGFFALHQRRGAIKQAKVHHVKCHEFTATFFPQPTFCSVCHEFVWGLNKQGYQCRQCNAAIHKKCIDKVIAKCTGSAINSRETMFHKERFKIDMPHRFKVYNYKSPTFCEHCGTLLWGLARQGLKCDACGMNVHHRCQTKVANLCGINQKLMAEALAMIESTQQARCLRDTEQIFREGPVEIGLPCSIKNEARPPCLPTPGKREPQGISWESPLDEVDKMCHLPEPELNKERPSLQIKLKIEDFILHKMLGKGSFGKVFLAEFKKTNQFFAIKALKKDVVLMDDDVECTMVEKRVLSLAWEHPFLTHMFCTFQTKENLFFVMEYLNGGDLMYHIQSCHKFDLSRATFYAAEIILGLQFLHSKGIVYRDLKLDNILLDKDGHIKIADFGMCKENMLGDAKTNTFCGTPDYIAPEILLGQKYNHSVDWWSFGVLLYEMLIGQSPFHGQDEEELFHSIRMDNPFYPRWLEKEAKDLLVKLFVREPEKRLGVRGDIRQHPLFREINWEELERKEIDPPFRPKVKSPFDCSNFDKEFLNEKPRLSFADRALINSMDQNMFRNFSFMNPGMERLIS
Lck(h) activated (human), sequence (P06239 whole entry): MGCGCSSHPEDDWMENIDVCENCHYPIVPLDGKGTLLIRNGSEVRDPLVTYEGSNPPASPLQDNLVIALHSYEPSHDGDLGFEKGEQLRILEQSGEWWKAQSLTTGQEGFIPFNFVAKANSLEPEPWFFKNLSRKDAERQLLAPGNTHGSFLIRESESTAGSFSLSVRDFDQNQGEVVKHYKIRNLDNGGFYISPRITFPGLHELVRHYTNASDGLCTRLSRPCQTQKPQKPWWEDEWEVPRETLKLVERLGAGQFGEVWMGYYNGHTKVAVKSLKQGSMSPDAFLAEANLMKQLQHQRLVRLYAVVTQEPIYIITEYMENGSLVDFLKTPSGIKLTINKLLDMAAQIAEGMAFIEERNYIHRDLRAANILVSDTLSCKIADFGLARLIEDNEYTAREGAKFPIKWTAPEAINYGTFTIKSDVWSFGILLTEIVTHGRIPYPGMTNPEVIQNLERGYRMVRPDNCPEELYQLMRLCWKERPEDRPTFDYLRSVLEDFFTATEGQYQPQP
MAPKAP-K2(h) (human), sequence (P49137 46-400 limits assumed): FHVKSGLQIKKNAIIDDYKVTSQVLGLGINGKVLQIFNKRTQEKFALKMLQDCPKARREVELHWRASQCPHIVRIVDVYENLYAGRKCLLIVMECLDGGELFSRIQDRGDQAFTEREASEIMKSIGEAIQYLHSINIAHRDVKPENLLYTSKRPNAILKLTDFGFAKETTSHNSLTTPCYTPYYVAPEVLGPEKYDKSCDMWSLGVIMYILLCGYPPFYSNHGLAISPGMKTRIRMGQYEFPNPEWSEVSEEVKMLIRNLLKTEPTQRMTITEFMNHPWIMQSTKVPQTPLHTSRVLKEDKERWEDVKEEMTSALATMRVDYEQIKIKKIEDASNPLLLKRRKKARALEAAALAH
SRPK1(h) (human), sequence (Q96SB4 whole entry): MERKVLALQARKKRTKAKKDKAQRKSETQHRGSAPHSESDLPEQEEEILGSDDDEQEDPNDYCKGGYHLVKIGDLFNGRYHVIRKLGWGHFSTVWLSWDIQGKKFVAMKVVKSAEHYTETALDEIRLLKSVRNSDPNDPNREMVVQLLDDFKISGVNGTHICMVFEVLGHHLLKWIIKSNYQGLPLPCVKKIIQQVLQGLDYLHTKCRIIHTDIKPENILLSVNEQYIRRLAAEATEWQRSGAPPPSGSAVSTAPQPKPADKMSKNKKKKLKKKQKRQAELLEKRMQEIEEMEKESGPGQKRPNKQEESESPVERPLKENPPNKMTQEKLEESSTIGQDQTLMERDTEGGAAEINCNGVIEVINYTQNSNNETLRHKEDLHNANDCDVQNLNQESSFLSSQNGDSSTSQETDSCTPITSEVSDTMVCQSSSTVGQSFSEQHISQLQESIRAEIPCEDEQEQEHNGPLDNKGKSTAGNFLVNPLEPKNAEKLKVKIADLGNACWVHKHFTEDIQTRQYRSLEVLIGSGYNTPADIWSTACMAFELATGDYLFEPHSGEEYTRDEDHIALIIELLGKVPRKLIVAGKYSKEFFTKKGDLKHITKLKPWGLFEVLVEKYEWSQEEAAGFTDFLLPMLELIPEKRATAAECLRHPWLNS

## MMI-0500 (peptide)
CDK2/cyclinE(h) (human)
  % activity: 19%
Rsk3(h) (human)
  % activity: 23%
Met(Y1248D)(h) (human)
  % activity: 218%
PDGFRα(D842V)(h) (human)
  % activity: 170%
Pim-2(h) (human)
  % activity: 46%
PKCθ(h) (human)
  % activity: 62%
PASK(h) (human)
  % activity: 9%
Mer(h) (human)
  % activity: 17%
Ab1(Q252H)(h) (human)
  % activity: 40%
[1]
  % activity: 45%
Flt3(D835Y)(h) (human)
  % activity: 65%
CaMKIIβ(h) (human)
  % activity: 3%
EphA4(h) (human)
  % activity: 48%
Hck(h) (human)
  % activity: 78%
PDK1(h) (human)
  % activity: 178%
cKit(D816H)(h) (human)
  % activity: 194%
FGFR3(h) (human)
  % activity: 10%
PKCα(h) (human)
  % activity: 3%
Aurora-A(h) (human)
  % activity: 110%
Ret(h) (human)
  % activity: 174%
Lck(h) activated (human)
  % activity: 76%
LOK(h) (human)
  % activity: 7%
EphB4(h) (human)
  % activity: 38%
Fms(h) (human)
  % activity: 14%
CK1δ(h) (human)
  % activity: 78%
GCK(h) (human)
  % activity: 30%
PKCη(h) (human)
  % activity: 45%
CaMKI(h) (human)
  % activity: -1%
SAPK4(h) (human)
  % activity: 48%
ZAP-70(h) (human)
  % activity: 1%
DDR2(h) (human)
  % activity: 79%
Bmx(h) (human)
  % activity: 45%
[2]
  % activity: 6%
Pim-3(h) (human)
  % activity: 37%
IR(h) (human)
  % activity: 95%
Tie2(Y897S)(h) (human)
  % activity: 80%
MST2(h) (human)
  % activity: 2%
FGFR4(h) (human)
  % activity: 3%
PKCζ(h) (human)
  % activity: 7%
Haspin(h) (human)
  % activity: 25%
mTOR/FKBP12(h) (human)
  % activity: 140%
PAK2(h) (human)
  % activity: 44%
cSRC(h) (human)
  % activity: 30%
CaMKIIγ(h) (human)
  % activity: 3%
CaMKIIδ(h) (human)
  % activity: 1%
Mnk2(h) (human)
  % activity: 6%
MST3(h) (human)
  % activity: 4%
Met(D1246N)(h) (human)
  % activity: 90%
MRCKα(h) (human)
  % activity: 5%
MSK1(h) (human)
  % activity: 8%
Ab1(T315I)(h) (human)
  % activity: 16%
MAPKAP-K2(h) (human)
  % activity: 9%
Met(D1246H)(h) (human)
  % activity: 150%
FAK(h) (human)
  % activity: 94%
Ab1(H396P)(h) (human)
  % activity: 51%
SRPK1(h) (human)
  % activity: 80%

## MMI-0100 (peptide)
CDK2/cyclinE(h) (human)
  % activity: 106%
Rsk3(h) (human)
  % activity: 76%
Met(Y1248D)(h) (human)
  % activity: 87%
PDGFRα(D842V)(h) (human)
  % activity: 103%
Pim-2(h) (human)
  % activity: 117%
PKCθ(h) (human)
  % activity: 102%
PASK(h) (human)
  % activity: 81%
Mer(h) (human)
  % activity: 47%
Ab1(Q252H)(h) (human)
  % activity: 105%
[1]
  % activity: 126%
Flt3(D835Y)(h) (human)
  % activity: 120%
CaMKIIβ(h) (human)
  % activity: 58%
EphA4(h) (human)
  % activity: 110%
Hck(h) (human)
  % activity: 354%
PDK1(h) (human)
  % activity: 144%
cKit(D816H)(h) (human)
  % activity: 79%
FGFR3(h) (human)
  % activity: 73%
PKCα(h) (human)
  % activity: 94%
Aurora-A(h) (human)
  % activity: 120%
Ret(h) (human)
  % activity: 108%
Lck(h) activated (human)
  % activity: 106%
LOK(h) (human)
  % activity: 37%
EphB4(h) (human)
  % activity: 62%
Fms(h) (human)
  % activity: 89%
CK1δ(h) (human)
  % activity: 115%
GCK(h) (human)
  % activity: 98%
PKCη(h) (human)
  % activity: 105%
CaMKI(h) (human)
  % activity: 13%
SAPK4(h) (human)
  % activity: 98%
ZAP-70(h) (human)
  % activity: 79%
DDR2(h) (human)
  % activity: 105%
Bmx(h) (human)
  % activity: 62%
[2]
  % activity: 228%
Pim-3(h) (human)
  % activity: 98%
IR(h) (human)
  % activity: 112%
Tie2(Y897S)(h) (human)
  % activity: 99%
MST2(h) (human)
  % activity: 98%
FGFR4(h) (human)
  % activity: 67%
PKCζ(h) (human)
  % activity: 82%
Haspin(h) (human)
  % activity: 127%
mTOR/FKBP12(h) (human)
  % activity: 117%
PAK2(h) (human)
  % activity: 71%
cSRC(h) (human)
  % activity: 70%
CaMKIIγ(h) (human)
  % activity: 106%
CaMKIIδ(h) (human)
  % activity: 89%
Mnk2(h) (human)
  % activity: 94%
MST3(h) (human)
  % activity: 104%
Met(D1246N)(h) (human)
  % activity: 114%
MRCKα(h) (human)
  % activity: 98%
MSK1(h) (human)
  % activity: 52%
Ab1(T315I)(h) (human)
  % activity: 98%
MAPKAP-K2(h) (human)
  % activity: 19%
Met(D1246H)(h) (human)
  % activity: 99%
FAK(h) (human)
  % activity: 98%
Ab1(H396P)(h) (human)
  % activity: 130%
SRPK1(h) (human)
  % activity: 69%
